The data set can be described thus: label from the status in PepcDB records.
Consider “MENTAPDVLDAGAAELPVERLKPELADVPNEKEDEDEAVCGGAEGVVELVVELAVLFKKENPVEAENGEAEAFEVLDVDEELKVDTPNGDGEEVVAPDEEDAKRDGVEPAEEDEPKNGEEPVAPKIDGEEPEADEATLKEGDEPVAPKMDDEEPGADEATLKDGVAPVADDGAPKRGDVEVAADEDAPKREELEAEADEGAENKEGEDPKRGVEPLAGAAPNGDDDGVAAEEAGAPNRDDDGVAVEEAEEVTNPKGEEPGAAEEALVVDEPNSDGAGADEEAAVPNPNDGVVEAGVTEAEDPNPNDGVDEEAEEPNPKEGVEEAPNPNDGVVEEAGVDDTEDPKPNPVELGFEDWLKEKDNGEVVDEAEEELVAEEDPNENPPTELD”, for which the protein production result is recorded as “failed”.
For “MENTVQEARRYLSNAREILSEKAKKNGIYYNDIKYVKLAGRAAYSGVLVALDGLLGKKDTRKSVEWYQEKLGKVDKKALTAFNSAYKILHLSMAYDGIELVSVSKDGLKQAEALINWVETRTAAA”, the protein production result is on record as “failed”.
To “MENVITYNNDKGLLAYIQFLASSAQKIGDGNTDRVFDFEDALDQTQMAQLAVDELKKIPEVNALFSERWLPAPFNLDDLAKLPEGTLGHVYAREMKARGFDPYFYKKVPVVDDISYLKMLWRSTHDIYHVVAGFDTNVFGEIGLQAFFLAQTPIPISVMLLSFGMVMISLYQPTNFKALMTEISRGYRVGSHTPGKLIAQKWDQLWDVQVSEIRERLGVNSIL” belongs “not failed”; to “MENVSDDRFAEMVWEAVSGGATLKDVHGIPQDMMEGLYAHAYDFYHKGRLDEAETFFRFLCIYDFYNPDYIMGLAAVCQLKKQFQKAVDLYAVAFALSKNDYRPVFFTGQCQLFMRKAAKARQCFELVCEQSGLEHHHHHH”, “failed”; to “MEPAGPCGFCPAGEVQPARYTCPRCNAPYCSLRCYRTHGTCAENFY”, “not failed”.
On to “MEPDMTQAFDDDTLRFYRGNATAYAERQPRSATLTKFLGELPAGAKILELGCGAGYQAEAMLAAGFDVDATDGSPELAAEASRRLGRPVRTMLFHQLDAIDAYDAVWAHACLLHVPRDELADVLKLIWRALKPGGLFYASYKSGEGEGRDKLARYYNYPSEEWLRARYAEAGTWASVAVESSEGKGFDQELAQFLHVSVRKPELEHHHHHH”, for which the protein production entry is “not failed”.
With “MEPVLTTKDLKHNYVDGSAELLRDPELVDPPFQVSRCAGNNRDLQTGQRSSGCVVTEIVYLSDSPYSSLNLVLRYPTTPAYPSRHFFSGLGHQMRMLSKLRFTLRSPLGLRRQPAPPPPLLVRVSLSSEPGVFIKMDLKDPASLLDLAMQCLLKNEPIIIQSLEEIPRELLIPLFCAAFLGGHKKTLTAIVKVWPFFCLHVGKLRSHETHSALLKAMIDGLQVLPAPNSASRGSKLKILDLRQDANCRTTCFPIRTKSPFCFHSCSYTQTSSRKRKGKHSTVNLGSEVQLSRYPTELLVDLSLDGTLRTSTFLSLLLSKVEQSSGALHLCCRDLQVDKLSDYNNTLKLLNLLCIDHLAVDQASLNDINTLLSQMVHLDSLSLSKITLTSLNAKIFKSFLTQLERMDNLQELNLSFFCLTNRLHKLLRVLPHDLDYLNLPFCELSYRDFRFLSQCPQAAHLKLLNLSNNPISWEDCEPLQTLMENVSGTLQHLEINHCLITDSTIFSLLPALSHCSHLRVLSFASNPITMSMLMRVLENLLPLMELKYVIYPIPVHCYERWYFQGTLDRQKLADVQVQLKAMLQAAQRGDMNWITFSE”, the protein production entry is “failed”.
For “MEPWKQCAQWLIHCKVLPTNHRVTWDSAQVFDLAQTLRDGVLLCQLLNNLRAHSINLKEINLRPQMSQFLCLKNIRTFLTACCETFGMRKSELFEAFDLFDVRDFGKVIETLSRLSRTPIALATGIRPFPTEESINDEDIYKGLPDLIDETLVEDEEDL”, the protein production entry was “failed”.
For the sequence “MEQDHVKVKKRVAFVLIDGLGDVTIPKLGYKTPLQAANIPNLDAIASAGINGLMDPVEVGLGCGSDTAHLSLMGYDPRVYYRGRGAFESMGAGLAMSPGDIAFKSNFATLDEKSGVVVSRRADRHFEEEGPILCAALDGLKLQSFPEYEVRVRYATEHRCGVVVKGPRLSGNISGTDPLKDNRLLLEAKPLDESEEATHTAKVVNELSREISRILVSHPVNAERAAQGKNIANLVLLRGCGIRIEVPPFHEKHGLWPCMVAPTKIIAGLGMSLGIDILEAPGATGDYRTLLTSKATAIANALSAPLNPCPNVFVPGEDGHKPGRSDGYDFGFLHIKAIDDAGHDKATMFKVRGLEAVDKAIRQLAKLLWQAESSTHYQYFLCVTGDHSTPVEYGDHSFEPVPFTMCRLRDFVSAVGGESAVLETSLDPFPLPTVVESGEDVTKQEEESGRREAPLAIGGDLVAELNEVAAARGCLGRFHGGEMMGVITNFLNLEV”, the protein production result is “failed”.
